Test system: Micrococcus lysodeikticus lyophilized cell suspensions
Assay: Lysozyme enzymatic assay: absorbance change at 450 nm of cell suspensions
Type: biochemical
Details: 0.01 mg/mL enzyme, 10 μL into 250 μL cell suspension 0.32 mg/mL, 66 mM phosphate buffer pH 6.2; A450 every minute for 15 minutes; ratio of slopes minus blank
Procedure: Lysozyme is an antimicrobial enzyme that is capable of hydrolyzing the 1,4-beta-linkages in the peptidoglycan of Gram-positive bacterial cell walls, thus leading to the lysis of bacteria (Fig. 8a). Therefore, the catalytic activity of modified lysozyme was assessed by investigation of the absorbance change at 450 nm of Micrococcus lysodeikticus lyophilized cell suspensions over time, where the activity of the modified lysozyme is proportional to their capability to hydrolyze the bacterial cell walls.[45] In comparison to native lysozyme, the disulfide-modified lysozyme Ly-PEG-Tz retained 86% of its activity (Fig. 8b, calculation details shown in Section 8.3 in ESI ^†).
Fig. 8 (a) The hydrolysis of 1,4-beta-linkages between N-acetyl-D-glucosamine (NAG) and N-acetylmuramic acid (NAM) residues in peptidoglycans of Gram-positive bacterial cell walls. The absorbance of the cell suspension at 450 nm was monitored to evaluate their catalytic activity and the rate of absorbance decrease was proportional to its activity. […]
The lysozyme enzymatic assay was performed according to the protocol form Sigma Aldrich’s technical bulletin. […] 250 μL of the cell suspensions was added to the 96-well plate and the absorbance was measured at 450 nm. According to the obtained absorbance, the concentration was carefully adjusted to ensure the absorbance at 450 nm between 0.6 and 0.7. […]

Substance | catalytic activity retained in comparison to native lysozyme
Ly-PEG5-Tz: lysozyme statistically modified at lysines with Tz-PEG5-NHS; mixture of no, single and dual modification | Total loss of the activity
Ly-PEG-Tz: lysozyme (hen egg white) modified at the C6–C127 disulfide with PEG-tetrazine via compound 8 | 86%
